Values joined by “and” are separate entries in the source; they are usually repeats but may differ in a detail not shown here. Identical values can stand only once. Each block holds one binder with its values, some of them ahead of it.
Assays:
[1] = biological target: T1, FLT3 (Fms Related Receptor Tyrosine Kinase 3) (human, UniProt P36888 27-993); assay: flow cytometry on REH cells, median fluorescence intensity against concentration, four-parameter fit, goat anti-human Fc FITC detection
T1 construct: whole, on cells; The target is endogenous FLT3 on human leukemia cell lines; also called human FLT3; FLK2
Procedure: (§1) REH cells were incubated with varying concentrations (10⁻¹ to 10⁴ ng/mL) of the IgG1 or scFv molecules diluted in FACS buffer (hereinafter referred to simply as “buffer,” phosphate buffered saline (PBS) (Caisson Labs, no. PBL06)+2% BCS (GE Healthcare, no. SH30073.04)+1 mM EDTA (Invitrogen, no. 15575020)) in a final volume of 100 μL, in triplicate, for 30 minutes at 4° C. Cells were washed three times with buffer and incubated with secondary antibodies. IgG1 was detected with 1:200 goat anti-human Fc FITC (Jackson) secondary antibody and scFv was detected with anti-His FITC (1:200) secondary antibody. Secondary antibodies were incubated in 100 μL final volume in triplicate for 30 minutes at 4° C. Cells were washed once with buffer and resuspended in 200 uL buffer+1:100 7-AAD Viability Staining Solution (Biolegend, no. 420404), and analyzed by flow cytometry. Flow cytometry acquisition was performed with a Beckman Coulter CytoFLEX (Beckman Coulter), and analysis was performed with FlowJo (Treestar Inc, Ashland, OR). Plots show median fluorescence intensity of REH cells versus concentration of the primary antibody used. Variable slope (four parameters) curve was fit to the data and EC50 was used to compare binding affinities.

[2] = biological target: T1, FLT3 (Fms Related Receptor Tyrosine …); assay: flow cytometry on REH cells, median fluorescence intensity against concentration, four-parameter fit, anti-His FITC detection
Procedure: as §1

[3] = biological target: T1, FLT3 (Fms Related Receptor Tyrosine …); assay: flow cytometry on REH cells, anti-human IgG Fc Alexa Fluor 488 detection, with or without 10 nM FLT3L pre-incubation
Source text: Cells were then stained with various concentrations of the chimeric monoclonal antibody prepared in flow buffer. Cells were washed five times with flow buffer and stained with anti-human IgG Fc antibody conjugated to Alexa Fluor 488 (Jackson Immunoresearch Laboratories, 109-545-008). Cells were stained with 7-AAD (7-AAD Viability Staining Solution, Biolegend 420404) followed by flow cytometry analysis.

- EC50 [1]: 0.0621 µg/mL and 0.41 nM
B1: fully humanized anti-human FLT3 monoclonal IgG1, clone hum 1-18BA-v1 (antibody, V domains shown)
VH: QVTLKESGPTLVKPTQTLTLTCTFSGFSLSTSTMGVGWIRQPPGKALEWLAHILWNDSKRYNPSLKSRLTITKDTSKKQVVLTMTNMDPVDTATYYCARIVYYSTYVGYFDVWGQGTTVTVSS
VL: DIQMTQSPSSLSASVGDRVTITCRASQEISGYLSWLQQKPGKAIKRLIYAASTLQSGVPSRFSGSRSGSDYTLTISSLQPEDFATYYCLQYASYPFTFGQGTKLEIK
notes: also called humanized anti-FLT3 IgG; IgG1 molecule

- EC50 [2]: 0.0854 µg/mL and 3.42 nM
B2: his-tagged scFv, clone hum 1-18BA-v1 (SEQ ID NO: 4 with a His tag on the C terminus) (scFv)
scFv: DIQMTQSPSSLSASVGDRVTITCRASQEISGYLSWLQQKPGKAIKRLIYAASTLQSGVPSRFSGSRSGSDYTLTISSLQPEDFATYYCLQYASYPFTFGQGTKLEIKGGGGSGGGGSGGGSGGGGSQVTLKESGPTLVKPTQTLTLTCTFSGFSLSTSTMGVGWIRQPPGKALEWLAHILWNDSKRYNPSLKSRLTITKDTSKKQVVLTMTNMDPVDTATYYCARIVYYSTYVGYFDVWGQGTTVTVSS
notes: also called humanized anti-FLT3 scFv; scFv molecule; not shown: C-terminal His tag

- binding result [3]: binds
B3: chimeric antibody 1-18BA (mouse VL and mouse VH, human IgG) (antibody, V domains shown)
VH: QVTLKESGPGILQPSQTLSLTCSFSGFSLSTSTMGVGWIRQPSGKGLEWLLHILWNDSKYYNPALKSRLTISKDTYNKQVFLKIANVDTADTATYYCARIVYYSTYVGYFDVWGAGTTVTVSS
VL: DIQMTQSPSSLSASLGERVSLTCRASQEISGYLSWLQQKPDGTIKRLIYAASTLHSGVPKRFSGSRSGSDYSLTISRLESEDVADYYCLQYASYPFTFGSGTKLEIK
notes: these appear to be the numbers of US 20190389955; also called chimeric anti-FLT3 antibody; cAb1977-10.0

— patent US20240216432A1 (HEMOGENYX PHARMACEUTICALS, published 2024)
